Publication PMC8967877 (2022)
Square brackets hold non-standard residues; d marks the D form. Ends that are not written are not given here. pT = C[C@@H](OP(=O)(O)O)[C@H](N)C(=O)O

Key:
Assay in all cases: FP
wild-type murine PNKP = wild-type murine PNKP (murine, UniProt Q9JLV6 1-522)
P101L PNKP (human) = P101L PNKP (human) (human, UniProt Q96T60-1 1-521, P101L)
[1] = biological target: Polynucleotide Kinase-Phosphatase (PNKP), human, wild-type (human, UniProt Q96T60-1 1-521)

Sequence of wild-type murine PNKP (Q9JLV6 whole entry): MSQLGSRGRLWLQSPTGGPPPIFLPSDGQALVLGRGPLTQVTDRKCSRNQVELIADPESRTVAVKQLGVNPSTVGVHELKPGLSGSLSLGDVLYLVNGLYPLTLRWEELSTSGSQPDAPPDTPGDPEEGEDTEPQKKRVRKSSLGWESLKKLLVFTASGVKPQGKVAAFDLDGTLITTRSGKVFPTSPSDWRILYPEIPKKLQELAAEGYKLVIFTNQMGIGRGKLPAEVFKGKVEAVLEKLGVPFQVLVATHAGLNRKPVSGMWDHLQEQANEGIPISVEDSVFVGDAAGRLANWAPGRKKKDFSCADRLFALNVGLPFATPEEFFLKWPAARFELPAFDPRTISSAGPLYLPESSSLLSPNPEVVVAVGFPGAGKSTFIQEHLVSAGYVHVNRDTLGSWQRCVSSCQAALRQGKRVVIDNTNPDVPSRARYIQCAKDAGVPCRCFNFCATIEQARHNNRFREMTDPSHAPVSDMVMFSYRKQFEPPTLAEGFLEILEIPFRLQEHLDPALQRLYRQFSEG

Q: GGYDES[pT]DEESKK (also: fluorescent dye label, position not given here) [fluorescent-dye labeled XRCC4-based phosphopeptide (GGYDES-pT-DEESKK)] was tested. Which Kd (wild-type murine PNKP) did it give?
A: Its Kd is 760 nM.

Q: And the Kd (P101L PNKP (human))?
A: The Kd was greater than 21000 nM.

Q: And the Kd [1]?
A: Its Kd is 1080 nM.
